Source: article PMC314469, “Protein Interaction Networks by Proteome Peptide Scanning” (PLoS Biology, 2004)

How the values were obtained:
[1] = biological target: T1, amphyphisin SH3 (AMPH_HUMAN), P49418; assay: SPOT array
T1 chain: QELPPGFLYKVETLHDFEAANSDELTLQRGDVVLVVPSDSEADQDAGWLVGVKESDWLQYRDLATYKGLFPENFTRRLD

[2] = biological target: endophilin SH3 (SH3G2_HUMAN), Q99962; assay: SPOT array

ISHLPSRPVKPNII [Q9BZQ1 159-172] gave a normalised SPOT signal, Boehringer light units (BLU); mean over the file's lines of this peptide [1] of 97.4 and a normalised SPOT signal, Boehringer light units (BLU); mean over the file's lines of this peptide [2] of 120.

With HLSSPARPPDNLSP [Q9H7P8 659-673] the normalised SPOT signal, Boehringer light units (BLU); mean over the file's lines of this peptide [1] was 95.5 and the normalised SPOT signal, Boehringer light units (BLU); mean over the file's lines of this peptide [2] was 76.9.

ALPSPLRPPAPPLP [Q9NR83 285-299] was tested, and the normalised SPOT signal, Boehringer light units (BLU); mean over the file's lines of this peptide [1] was 299 and the normalised SPOT signal, Boehringer light units (BLU); mean over the file's lines of this peptide [2] was 1950.

IFVAPKRPSPLPRA [Q9NZP6 64-77] gave a normalised SPOT signal, Boehringer light units (BLU); mean over the file's lines of this peptide [1] of 4170 and a normalised SPOT signal, Boehringer light units (BLU); mean over the file's lines of this peptide [2] of 7170.

Work on IDPAILRPGRLDQL [P55072 629-642] yielded a normalised SPOT signal, Boehringer light units (BLU); mean over the file's lines of this peptide [1] of 304 and a normalised SPOT signal, Boehringer light units (BLU); mean over the file's lines of this peptide [2] of 87.

ALPRPLRPPLPPDP [O43763 237-251] showed a normalised SPOT signal, Boehringer light units (BLU); mean over the file's lines of this peptide [1] of 553 and a normalised SPOT signal, Boehringer light units (BLU); mean over the file's lines of this peptide [2] of 3470.

For ISPEFKRPRDIAVD [Q9NZR2 3964-3977], the normalised SPOT signal, Boehringer light units (BLU); mean over the file's lines of this peptide [1] was 30.4 and the normalised SPOT signal, Boehringer light units (BLU); mean over the file's lines of this peptide [2] was 14.9.

HVFQFTRPPRETPT [O75354 116-129] gave a normalised SPOT signal, Boehringer light units (BLU); mean over the file's lines of this peptide [1] of 4870 and a normalised SPOT signal, Boehringer light units (BLU); mean over the file's lines of this peptide [2] of 171.

ALQPPRRPKSSNPF [Q9Y6N1 67-80] showed a normalised SPOT signal, Boehringer light units (BLU); mean over the file's lines of this peptide [1] of 140 and a normalised SPOT signal, Boehringer light units (BLU); mean over the file's lines of this peptide [2] of 22500.

HRSHLRRPAAPPSP [Q8WWE0 14-27] was tested, and the normalised SPOT signal, Boehringer light units (BLU); mean over the file's lines of this peptide [1] was 58 and the normalised SPOT signal, Boehringer light units (BLU); mean over the file's lines of this peptide [2] was 55.2.

IDPALRRPGRFDRE [Q96IW6 580-593] gave a normalised SPOT signal, Boehringer light units (BLU); mean over the file's lines of this peptide [1] of 314 and a normalised SPOT signal, Boehringer light units (BLU); mean over the file's lines of this peptide [2] of 108.

In the case of IDEALLRPGRLEVK [P46459 379-392], the normalised SPOT signal, Boehringer light units (BLU); mean over the file's lines of this peptide [1] is reported as 370 and the normalised SPOT signal, Boehringer light units (BLU); mean over the file's lines of this peptide [2] is reported as 0.

IFGPLKRPIVEFSL [Q9NW13 566-579] showed a normalised SPOT signal, Boehringer light units (BLU); mean over the file's lines of this peptide [1] of 27.1 and a normalised SPOT signal, Boehringer light units (BLU); mean over the file's lines of this peptide [2] of 61.9.

IFSTLKRPQVETKT [Q96NM3 19-32] was tested, and the normalised SPOT signal, Boehringer light units (BLU); mean over the file's lines of this peptide [1] was 39.7 and the normalised SPOT signal, Boehringer light units (BLU); mean over the file's lines of this peptide [2] was 36.9.

IFDGIQRPLKDINE [P38607 97-110] was tested, and the normalised SPOT signal, Boehringer light units (BLU); mean over the file's lines of this peptide [1] was 81.7 and the normalised SPOT signal, Boehringer light units (BLU); mean over the file's lines of this peptide [2] was 127.

In the case of ISQKIKRPANSGEL [Q9H4G7 129-142], the normalised SPOT signal, Boehringer light units (BLU); mean over the file's lines of this peptide [1] is reported as 45.6 and the normalised SPOT signal, Boehringer light units (BLU); mean over the file's lines of this peptide [2] is reported as 24.2.

HPLVPKRPDASFMA [P54368 201-214] was tested, and the normalised SPOT signal, Boehringer light units (BLU); mean over the file's lines of this peptide [1] was 125 and the normalised SPOT signal, Boehringer light units (BLU); mean over the file's lines of this peptide [2] was 1970.

IEEVPPRPPSPPKK [Q16348 18-32] showed a normalised SPOT signal, Boehringer light units (BLU); mean over the file's lines of this peptide [1] of 225 and a normalised SPOT signal, Boehringer light units (BLU); mean over the file's lines of this peptide [2] of 4240.

In the case of HPGKPERPPPQGGN [P10163 94-108], the normalised SPOT signal, Boehringer light units (BLU); mean over the file's lines of this peptide [1] is reported as 57.4 and the normalised SPOT signal, Boehringer light units (BLU); mean over the file's lines of this peptide [2] is reported as 794.

HYLVPVRPRRQIVY [Q9Y4V7 156-169] was tested, and the normalised SPOT signal, Boehringer light units (BLU); mean over the file's lines of this peptide [1] was 5140 and the normalised SPOT signal, Boehringer light units (BLU); mean over the file's lines of this peptide [2] was 3150.

For IAWGLRRPIRLQMQ [Q9H2L5 59-72], the normalised SPOT signal, Boehringer light units (BLU); mean over the file's lines of this peptide [1] was 489 and the normalised SPOT signal, Boehringer light units (BLU); mean over the file's lines of this peptide [2] was 846.

Work on HSFLINRPGKVKYM [Q9H5T1 190-203] yielded a normalised SPOT signal, Boehringer light units (BLU); mean over the file's lines of this peptide [1] of 202 and a normalised SPOT signal, Boehringer light units (BLU); mean over the file's lines of this peptide [2] of 117.

IEPQIRRPRSLSSP [O43165 457-470] showed a normalised SPOT signal, Boehringer light units (BLU); mean over the file's lines of this peptide [1] of 113 and a normalised SPOT signal, Boehringer light units (BLU); mean over the file's lines of this peptide [2] of 365.

For ISTKLVRPKRKHGT [P42679 203-216], the normalised SPOT signal, Boehringer light units (BLU); mean over the file's lines of this peptide [1] was 2410 and the normalised SPOT signal, Boehringer light units (BLU); mean over the file's lines of this peptide [2] was 97.8.

Binder HSTGINRPKRTGSL [P28749 775-788] has a normalised SPOT signal, Boehringer light units (BLU); mean over the file's lines of this peptide [1] of 2890 and a normalised SPOT signal, Boehringer light units (BLU); mean over the file's lines of this peptide [2] of 224.

HTKNLLRPTKLNLQ [Q9BXU7 768-781] showed a normalised SPOT signal, Boehringer light units (BLU); mean over the file's lines of this peptide [1] of 110 and a normalised SPOT signal, Boehringer light units (BLU); mean over the file's lines of this peptide [2] of 61.7.

With HPDLLRRPGARSTS [Q9BXK1 213-226] the normalised SPOT signal, Boehringer light units (BLU); mean over the file's lines of this peptide [1] was 29.9 and the normalised SPOT signal, Boehringer light units (BLU); mean over the file's lines of this peptide [2] was 0.2.

For IDPAILRPGRLDKT [O15381 730-743], the normalised SPOT signal, Boehringer light units (BLU); mean over the file's lines of this peptide [1] was 317 and the normalised SPOT signal, Boehringer light units (BLU); mean over the file's lines of this peptide [2] was 225.

Work on HLLLFHRPLRASGA [Q9HBK7 243-256] yielded a normalised SPOT signal, Boehringer light units (BLU); mean over the file's lines of this peptide [1] of 1690 and a normalised SPOT signal, Boehringer light units (BLU); mean over the file's lines of this peptide [2] of 33.5.

IFMYLRRPTEESVE [Q96RC0 189-202] gave a normalised SPOT signal, Boehringer light units (BLU); mean over the file's lines of this peptide [1] of 111 and a normalised SPOT signal, Boehringer light units (BLU); mean over the file's lines of this peptide [2] of 165.

Binder IGRNIARPWKLIYY [Q15361 592-605] has a normalised SPOT signal, Boehringer light units (BLU); mean over the file's lines of this peptide [1] of 205 and a normalised SPOT signal, Boehringer light units (BLU); mean over the file's lines of this peptide [2] of 314.

With HTVELRRPSSDMEG [O14791 6-19] the normalised SPOT signal, Boehringer light units (BLU); mean over the file's lines of this peptide [1] was 50.5 and the normalised SPOT signal, Boehringer light units (BLU); mean over the file's lines of this peptide [2] was 27.4.

For IAEALSRPGREASL [O15069 1001-1014], the normalised SPOT signal, Boehringer light units (BLU); mean over the file's lines of this peptide [1] was 932 and the normalised SPOT signal, Boehringer light units (BLU); mean over the file's lines of this peptide [2] was 142.

In the case of HPEFLSRPIKPSPP [P17812 526-539], the normalised SPOT signal, Boehringer light units (BLU); mean over the file's lines of this peptide [1] is reported as 75.1 and the normalised SPOT signal, Boehringer light units (BLU); mean over the file's lines of this peptide [2] is reported as 45.5.

In the case of HVQSPEKPPTSPRE [BAC05287 132-146], the normalised SPOT signal, Boehringer light units (BLU); mean over the file's lines of this peptide [1] is reported as 49.7 and the normalised SPOT signal, Boehringer light units (BLU); mean over the file's lines of this peptide [2] is reported as 49.6.

IDPALLRPGRLDKS [O43933 989-1002] gave a normalised SPOT signal, Boehringer light units (BLU); mean over the file's lines of this peptide [1] of 619 and a normalised SPOT signal, Boehringer light units (BLU); mean over the file's lines of this peptide [2] of 0.

Binder IDPAILRPGRPDQL [Q9HAP0 257-270] has a normalised SPOT signal, Boehringer light units (BLU); mean over the file's lines of this peptide [1] of 220 and a normalised SPOT signal, Boehringer light units (BLU); mean over the file's lines of this peptide [2] of 169.

Binder HLWQPKRPAVPKKA [Q96FM3 493-506] has a normalised SPOT signal, Boehringer light units (BLU); mean over the file's lines of this peptide [1] of 17.3 and a normalised SPOT signal, Boehringer light units (BLU); mean over the file's lines of this peptide [2] of 816.

AAPEPKRPHIAQVP [Q9Y6X8 414-427] gave a normalised SPOT signal, Boehringer light units (BLU); mean over the file's lines of this peptide [1] of 7.5 and a normalised SPOT signal, Boehringer light units (BLU); mean over the file's lines of this peptide [2] of 108.

With HQEKPERPLRGGKS [Q9NWA6 173-186] the normalised SPOT signal, Boehringer light units (BLU); mean over the file's lines of this peptide [1] was 9960 and the normalised SPOT signal, Boehringer light units (BLU); mean over the file's lines of this peptide [2] was 2060.

Binder ALQSPKRPRSPGSN [P78347 665-678] has a normalised SPOT signal, Boehringer light units (BLU); mean over the file's lines of this peptide [1] of 31.5 and a normalised SPOT signal, Boehringer light units (BLU); mean over the file's lines of this peptide [2] of 256.

In the case of HTAEFRRPMATGDT [Q9H6N9 66-79], the normalised SPOT signal, Boehringer light units (BLU); mean over the file's lines of this peptide [1] is reported as 45.7 and the normalised SPOT signal, Boehringer light units (BLU); mean over the file's lines of this peptide [2] is reported as 18.7.
